Results reported in patent US20240084003A1 (SIMCERE ZAIMING PHARMACEUTICAL, published 2024).

T1: murine CD22 protein (ACROBiosystems, SI2-M52Ha) (murine, UniProt P35329 22-708)
T1 construct: extracellular domain; also called murine CD22-ECD; murine CD22-ECD-His
T1 sequence (looked up): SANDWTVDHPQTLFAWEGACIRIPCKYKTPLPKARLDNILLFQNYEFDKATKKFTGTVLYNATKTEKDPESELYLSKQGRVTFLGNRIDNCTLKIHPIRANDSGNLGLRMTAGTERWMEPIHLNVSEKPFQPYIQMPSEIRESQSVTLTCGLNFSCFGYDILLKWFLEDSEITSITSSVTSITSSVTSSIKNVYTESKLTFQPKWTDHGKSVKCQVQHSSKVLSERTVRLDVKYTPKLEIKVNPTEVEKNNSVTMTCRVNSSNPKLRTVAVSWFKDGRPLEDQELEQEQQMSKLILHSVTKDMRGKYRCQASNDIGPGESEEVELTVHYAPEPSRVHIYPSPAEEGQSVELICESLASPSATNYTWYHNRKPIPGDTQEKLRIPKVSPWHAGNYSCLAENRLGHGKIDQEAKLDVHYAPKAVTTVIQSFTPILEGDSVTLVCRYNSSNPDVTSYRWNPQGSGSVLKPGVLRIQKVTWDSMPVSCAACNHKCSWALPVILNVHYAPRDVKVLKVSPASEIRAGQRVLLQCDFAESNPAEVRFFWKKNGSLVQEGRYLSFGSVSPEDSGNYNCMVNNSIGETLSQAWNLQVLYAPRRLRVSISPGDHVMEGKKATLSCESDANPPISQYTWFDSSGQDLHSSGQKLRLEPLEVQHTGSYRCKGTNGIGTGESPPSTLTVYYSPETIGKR

T2: human CD22, full length, on CHO-K1-human CD22 2C4 cells (human, UniProt P20273 20-847)
T2 construct: Full-length human CD22 (NCBI NP_001762.2) stably transfected into CHO-K1
T2 sequence: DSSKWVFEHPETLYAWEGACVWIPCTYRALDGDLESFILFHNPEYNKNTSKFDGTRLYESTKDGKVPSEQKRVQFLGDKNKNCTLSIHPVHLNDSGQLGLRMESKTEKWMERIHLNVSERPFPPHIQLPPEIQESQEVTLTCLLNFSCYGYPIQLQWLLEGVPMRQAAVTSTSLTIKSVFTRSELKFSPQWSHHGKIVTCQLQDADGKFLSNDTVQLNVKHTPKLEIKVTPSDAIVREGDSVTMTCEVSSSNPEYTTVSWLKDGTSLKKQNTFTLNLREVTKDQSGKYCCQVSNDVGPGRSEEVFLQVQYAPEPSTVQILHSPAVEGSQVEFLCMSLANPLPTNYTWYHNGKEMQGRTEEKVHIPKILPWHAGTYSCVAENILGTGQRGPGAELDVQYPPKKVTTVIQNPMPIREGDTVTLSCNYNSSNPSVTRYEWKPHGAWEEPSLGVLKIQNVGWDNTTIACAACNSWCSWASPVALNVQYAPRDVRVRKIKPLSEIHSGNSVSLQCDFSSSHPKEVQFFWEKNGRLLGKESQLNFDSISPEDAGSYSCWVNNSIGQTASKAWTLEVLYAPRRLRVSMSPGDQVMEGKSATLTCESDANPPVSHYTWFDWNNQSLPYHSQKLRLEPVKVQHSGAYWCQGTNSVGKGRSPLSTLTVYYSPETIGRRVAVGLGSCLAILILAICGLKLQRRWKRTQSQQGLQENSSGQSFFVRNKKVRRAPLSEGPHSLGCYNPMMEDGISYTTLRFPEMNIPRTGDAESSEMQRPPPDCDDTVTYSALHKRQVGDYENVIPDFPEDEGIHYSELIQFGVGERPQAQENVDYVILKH

T3: human CD22, endogenous on Raji cells (human, UniProt P20273 20-847)
T3 construct: whole, on cells; Endogenous protein of the Raji cell line
T3 sequence (looked up): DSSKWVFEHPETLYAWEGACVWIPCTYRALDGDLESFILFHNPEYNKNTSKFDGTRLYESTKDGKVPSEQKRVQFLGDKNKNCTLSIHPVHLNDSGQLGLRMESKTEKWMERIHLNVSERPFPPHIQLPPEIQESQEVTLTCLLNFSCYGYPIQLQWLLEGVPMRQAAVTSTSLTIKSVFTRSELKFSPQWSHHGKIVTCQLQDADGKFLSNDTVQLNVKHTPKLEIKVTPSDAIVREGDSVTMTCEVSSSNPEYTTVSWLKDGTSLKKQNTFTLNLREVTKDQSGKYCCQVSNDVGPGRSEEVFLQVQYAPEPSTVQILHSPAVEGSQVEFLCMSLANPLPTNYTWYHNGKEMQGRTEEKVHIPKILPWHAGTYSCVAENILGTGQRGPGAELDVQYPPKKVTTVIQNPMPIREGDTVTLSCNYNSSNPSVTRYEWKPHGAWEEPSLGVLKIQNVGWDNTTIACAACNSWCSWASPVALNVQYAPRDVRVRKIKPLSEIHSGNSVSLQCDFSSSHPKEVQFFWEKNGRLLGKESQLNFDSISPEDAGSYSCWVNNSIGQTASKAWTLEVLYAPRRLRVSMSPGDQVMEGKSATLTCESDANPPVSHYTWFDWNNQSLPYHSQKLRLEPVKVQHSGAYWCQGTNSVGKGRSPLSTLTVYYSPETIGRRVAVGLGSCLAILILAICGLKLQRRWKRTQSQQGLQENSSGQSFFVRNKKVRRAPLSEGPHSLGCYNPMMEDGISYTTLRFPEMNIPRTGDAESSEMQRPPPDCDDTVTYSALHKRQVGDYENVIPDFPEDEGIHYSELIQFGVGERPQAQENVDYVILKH

B1: F1.257.3 human-murine chimeric antibody (antibody, human IgG1, kappa, V domains shown)
VH: QVQLQQSGPELARPGASVKLSCKASGYTFTSYGISWVKQRTGQDLEWIGEIYPKLGTTYYNEKFKDKATLTTDRSSSTAYMALRSLTSEDSAVYFCACPHYYATRGGDYWGQGTTLTVSS
VL: EIVLTQSPATLSVTPGDSVTFSCRASQSISNHLHWYQQKSHESPRLLIRYASQSISGIPSRFSGSGSGTDFTLSLSSVETEDFGVYFCQQSHSWPYTFGGGTKLEIAR
notes: Chimeric, human IgG1 / kappa; VL tied by name
B2: F1.161.7 (antibody, human IgG1, kappa, V domains shown)
VH: QVQLQQPGAELVKPGASVKMSCKASGYTFTSYWISWVKQRPGQGLEWIGDIYPGTGSSNYNEKFKSKATLTVDTSSSTAYMQLSSLTSEDSAVYYCARLKFEGIGYWGQGTTLTVSS
VL: QIVLTQSPAIMSASLGEEITLTCSASSSVSYMHWFQQKSGTSPKLLIYSISNLASGVPSRFSGSGSGTFYSLTISSVEAEDAADYYCHQWSSYPWTFGGGTKLEIKR
notes: human-murine chimeric IgG1 kappa
B3: F1.161.7 human-murine chimeric antibody (antibody, human IgG1, kappa, V domains shown)
VH: QVQLQQPGAELVKPGASVKMSCKASGYTFTSYWISWVKQRPGQGLEWIGDIYPGTGSSNYNEKFKSKATLTVDTSSSTAYMQLSSLTSEDSAVYYCARLKFEGIGYWGQGTTLTVSS
VL: QIVLTQSPAIMSASLGEEITLTCSASSSVSYMHWFQQKSGTSPKLLIYSISNLASGVPSRFSGSGSGTFYSLTISSVEAEDAADYYCHQWSSYPWTFGGGTKLEIKR
notes: Chimeric, human IgG1 / kappa
B4: F1.62.10 human-murine chimeric antibody (antibody, human IgG1, kappa, V domains shown)
VH: QVQLQQSGPELVKPGASVKISCKASGYEFSSIWMNWVKQRPGEGLEWIGRIFPGDGEINYNEKFKGKATLTADRSSTTAYMQLSSLTSEDSAVYFCAGWRIYYGTYGAMDYWGQGTSVTVSS
VL: DIQMTQITSSLSASLGDRVTISCRASQDIGNYLNWYQQKPDGTVKLLIYYTSRLHSGVPSRFSGSGSRTDYSLTISNLQQEDIATYFCQQGNTLPWTFGGGTKLEIKR
notes: Chimeric, human IgG1 / kappa
B5: F1.17.1 human-murine chimeric antibody (antibody, human IgG1, kappa, V domains shown)
VH: QVQLKESGPGLVAPSQSLSITCTVSGFSLSRYTVHWVRQPPGKGLEWLGMIWGGGSTDYNSALKSRLSISKDNSKSQVFLKMNSLQTDDTAMYYCARPHDFDAGGFAYWGQGTLVTVSA
VL: QIVLTQSPAILSTSPGEKVTMTCSASSRVNYMYWYQQKPGSSPRLLIYDTSNLASGVPVRFSGSGSGTSYSLTISRMEAEDAATYYCQQWTSYPLTFGAGTKLELKR
notes: Chimeric, human IgG1 / kappa
B6: F2.127.11 (antibody, human IgG1, lambda, V domains shown)
VH: QVTLKESGPGILQPSQTLSLTCSFSGFSLSTFGMGVGWIRQPSGKGLEWLAHIWWDDDKHYNPALKSRLTISKDTSRNQVFLKIANVDTADGATYFCARDNWVSSLDYWGQGTSVIVSS
VL: QPVITQSSSASFSLGASAELTCTLSSQHSTYTIEWYQQQPLKPPKYVMGLKKDGSHSTGDGIPDRFSGSSSGADRYLSISNIQPEDEAIYICGVSDTIKEQFVYVFGGGTKVTVLG
notes: human-murine chimeric IgG1 lambda; VL name legible

Assays:
[1] = target: T1, murine CD22 protein (ACROBiosystems, …); test: ELISA, coated murine CD22, 0.1 nM Ab
In short: (§1)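 Read-out is TMB absorbance after a 30 min room-temperature development stopped with 1.0 N HCl. It reflects chimeric antibody bound to plate-coated CD22 (2 μg/mL), detected with an HRP-labelled secondary antibody. Antibody and secondary incubations each ran 2 h at 37° C.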

[2] = target: T1, murine CD22 protein (ACROBiosystems, …); test: ELISA, coated murine CD22, 0.01 nM Ab
In short: as §1

[3] = target: T1, murine CD22 protein (ACROBiosystems, …); test: ELISA, coated murine CD22, 0.0001 nM Ab
In short: as §1

[4] = target: T2, human CD22, full length, on …; test: FACS, CHO-K1-human CD22 2C4 cells
In short: (§2)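 Raji cells and CHO-K1 cells expressing human CD22 were blocked in PBS + 2% BSA at 2×10⁶ cells/ml and incubated with chimeric antibody for 2 h on ice. Bound antibody was detected with an Alexa Fluor 488 secondary for 1 h on ice and read by flow cytometry as MFI. EC50 came from curve fitting.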

[5] = target: T1, murine CD22 protein (ACROBiosystems, …); test: ELISA, coated murine CD22, 10 nM Ab
In short: as §1

[6] = target: T1, murine CD22 protein (ACROBiosystems, …); test: ELISA, coated murine CD22, 0.001 nM Ab
In short: as §1

[7] = target: T1, murine CD22 protein (ACROBiosystems, …); test: ELISA, coated murine CD22, 0.00001 nM Ab
In short: as §1

[8] = target: T1, murine CD22 protein (ACROBiosystems, …); test: ELISA, coated murine CD22, 100 nM Ab
In short: as §1

[9] = target: T3, human CD22, endogenous on Raji cells; test: FACS, Raji cells
In short: as §2

[10] = target: T4, CD22 on cynomolgus monkey peripheral blood B cells (cynomolgus monkey (Macaca fascicularis)); test: FACS, cynomolgus PBMC, CD20+ B cells, antibody 100 nM
T4 construct: whole, on cells; also called cynomolgus monkey B cells
Excerpt: (§3) The monkey peripheral blood mononuclear cells were extracted from fresh cynomolgus monkey peripheral blood (purchased from Shanghai Medicilon Inc.) according to the instructions of Ficoll-Paque Plus (purchased from GE Healthcare, catalog number: 171440-02). After the cell suspension was centrifuged, the cells were resuspended in PBS containing 1% BSA, and then the cells were counted. At the same time, the murine antibody Brilliant Violet 605 anti-human CD20 (catalog number: 302334, purchased from Biolegend) with monkey CD20 cross-binding activity and the chimeric antibodies to be tested (1 nM, 10 nM and 100 nM) were added and incubated at room temperature for 1 hour. After washing the cells three times, APC-labeled secondary antibody anti-human IgG Fc (catalog number: 409306, purchased from Biolegend) was added. After incubation at room temperature in the dark for 30 minutes, the cells were washed 5 times, gently resuspended with PBS containing 1% BSA, and detected and analyzed by FACS (FACS Canto™, purchased from BD Company). Wherein CD20 was used as a marker of B cells, and the CD20-positive B cell population was gated, the proportion of chimeric antibody positive cells was analyzed, and the proportion of chimeric antibody positive cell population to B cell population was calculated after treatments with the chimeric antibodies at the concentrations of 100 nM, 10 nM and 1 nM, respectively. The scatter plot of double-stained cells by Brilliant Violet 605-labeled CD20 and APC secondary antibody indirectly labeled chimeric antibody is shown in FIG. 10A-FIG. 10B (under the condition of 1 nM of chimeric antibody concentration).

[11] = target: T4, CD22 on cynomolgus monkey peripheral …; test: FACS, cynomolgus PBMC, CD20+ B cells, antibody 10 nM
Excerpt: as §3

[12] = target: T4, CD22 on cynomolgus monkey peripheral …; test: FACS, cynomolgus PBMC, CD20+ B cells, antibody 1 nM
Excerpt: as §3

| Binder | OD450 [1] [OD450] | OD450 [2] [OD450] | OD450 [3] [OD450] | EC50 [4] [nM] | Maximum mean fluorescence intensity [4] [MFI] | OD450 [5] [OD450] | OD450 [6] [OD450] | OD450 [7] [OD450] | OD450 [8] [OD450] | EC50 [9] [nM] | Maximum mean fluorescence intensity [9] [MFI] | Proportion of chimeric antibody positive cells to B cells (%) [10] [%] | Proportion of chimeric antibody positive cells to B cells (%) [11] [%] | Proportion of chimeric antibody positive cells to B cells (%) [12] [%] |
| --- | --- | --- | --- | --- | --- | --- | --- | --- | --- | --- | --- | --- | --- | --- |
| B1 | 0.05 | 0.05 | 0.05 | 0.68 | 46600 | 0.07 | 0.05 | 0.06 | 0.2 | 0.27 | 29300 |  |  |  |
| B2 |  |  |  |  |  |  |  |  |  |  |  | 29 | 21 | 16 |
| B3 | 0.05 | 0.05 | 0.05 | 0.59 | 37100 | 0.06 | 0.05 | 0.06 | 0.08 | 0.22 | 27900 |  |  |  |
| B4 | 0.05 | 0.05 | 0.06 | 1.31 | 29200 | 0.06 | 0.05 | 0.07 | 0.08 | 1.1 | 25600 |  |  |  |
| B5 | 0.05 | 0.05 | 0.05 | 0.44 | 36900 | 0.06 | 0.05 | 0.06 | 0.07 | 0.17 | 28500 |  |  |  |
| B6 |  |  |  |  |  |  |  |  |  |  |  | 22 | 21 | 20 |
